The text below walks through data of article PMC8389677, “Time-Resolved Studies of Ytterbium Distribution at Interfacial Surfaces of Ferritin-like Dps Protein Demonstrate Metal Uptake and Storage Pathways” (Biomedicines, 2021).

This data set deals with the molecule itself. The data set can be described thus: crystal structure; apo-LiDps crystals (hanging drop, 100 mM HEPES pH 7.5, 12.5-20.0% PEG 1500, 21 °C) soaked 30 or 120 min in 10 mM YbCl3; space group P41212 with six monomers in the asymmetric unit; data at 100 K.

B1: Listeria innocua Dps (DNA binding protein from starved cells) (natural protein)
chain: MKTINSVDTKEFLNHQVANLNVFTVKIHQIHWYMRGHNFFTLHEKMDDLYSEFGEQMDEVAERLLAIGGSPFSTLKEFLENASVEEAPYTKPKTMDQLMEDLVGTLELLRDEYKQGIELTDKEGDDVTNDMLIAFKASIDKHIWMFKAFLGKAPLE
notes: Dps (ferritin-like protein) of Listeria innocua; Homo-dodecameric cage; Crystals in space group P41212 have six monomers in the asymmetric unit; Crystals were soaked with 10 mM YbCl3 for 30 or 120 min; PDB 1QGH was the search model for molecular replacement; also called LiDps; Apo-Dps; copies: 12
A word on the stoichiometry N: it is a count of units in the complex or per binding partner. As for B1, the “stoichiometry N” value is 12.
